We go through one molecule from publication PMC3578790, “Tight Interconnection and Multi-Level Control of Arabidopsis MYB44 in MAPK Cascade Signalling”.

For this series, the target named is MYB44 (Arabidopsis thaliana? (Arabidopsis, …, UniProt Q9FDW1 1-305)). The experiment in a line: EMSA; no competitor; unlabelled MBSII 100x blocks the shift; unchanged with GST-MPK3 and/or GST-MKK4, with or without 0.5 mM ATP; 10 mM Tris pH 8.0, 5 mM MgCl2, 100 mM KCl, 0.02% Triton X-100, 0.1 mg/ml BSA, 0.25% Tween, 2.5 mM DTT, 3 ng/ul poly(dIdC); 30 min room temperature; 5% PAGE in 0.5x TBE or TAE (TAE main) at 4 C. The note with it: protein: recombinant; label: 5' Dy782 (Methods; called IRDye in Results); (only one strand printed). In general terms: In EMSA bound probe runs differently from free probe, usually more slowly.
Sequence of MYB44 (Arabidopsis thaliana? (Q9FDW1 whole entry): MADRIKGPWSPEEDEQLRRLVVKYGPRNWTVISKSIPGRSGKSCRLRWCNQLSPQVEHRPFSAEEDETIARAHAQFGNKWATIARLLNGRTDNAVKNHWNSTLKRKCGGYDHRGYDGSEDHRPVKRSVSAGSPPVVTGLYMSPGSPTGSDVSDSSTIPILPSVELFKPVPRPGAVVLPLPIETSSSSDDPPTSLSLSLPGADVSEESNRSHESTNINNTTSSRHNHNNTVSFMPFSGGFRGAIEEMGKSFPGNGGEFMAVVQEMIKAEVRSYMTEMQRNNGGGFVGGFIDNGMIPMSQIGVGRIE

B1: MBSII (dsDNA)
DNA 1: AGCTTCAAAAGTTAGTTACG
DNA 2: CGTAACTAACTTTTGAAGCT
Regarding B1, the binding result was “binds”.
